# Measured values taken from patent publication US20140127212A1 (AstraZeneca / MedImmune, published 2014).
# Changes are numbered by the printed parent chain.
# T1: cynomolgus IgE Cε3-Cε4 domain, C-terminally tagged with FLAG His10 (cynomolgus monkey)
# T1 construct: also called Cynomolgus Ce3-4 FLAG His10
# T1 chain: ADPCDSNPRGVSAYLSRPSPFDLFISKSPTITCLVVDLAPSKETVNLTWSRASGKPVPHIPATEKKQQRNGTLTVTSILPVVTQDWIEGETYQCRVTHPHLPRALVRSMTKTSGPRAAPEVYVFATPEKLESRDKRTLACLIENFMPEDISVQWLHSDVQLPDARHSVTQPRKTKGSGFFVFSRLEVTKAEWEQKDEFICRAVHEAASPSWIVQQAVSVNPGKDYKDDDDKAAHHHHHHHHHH
# B1: Antibody 1 IgG (antibody, V domains shown)
# VH: QVQLVQSGAEVKKPGATVKLSCKVYGYIFTDYNIYWVRQAPGKGLEWMGLIDPDNGETFYAEKFQGRATMTADTSSDRAYMELTSLTFEDTATYYCATVLHRRLKGGYDYWGRGTLVTVSS
# VL: QSVLTQPPSVSGAPGQRVTISCTGSSSNIGAGYDVHWYQQLPGTAPKLLIYDNFNRPSGVPDRFSGSKSGTSASLAIIGLQTEDEADYYCQSYDSSLSGSLFGTGTKLTVL
# notes: Whole human IgG (section 1.4, IgG1); also called parent antibody
# B2: Antibody 2 scFv (scFv, V domains shown)
# VH: B1 VH with L100S, H101L, R103S, L104A
# VL: B1 VL
# notes: Purified scFv
# B3: Antibody 16 scFv (scFv, V domains shown)
# VH: B1 VH with L100S, H101L, R102K, R103S, L104A
# VL: B1 VL with S96R, L97H, S98H, G99H, S100A, L101P
# notes: Purified scFv
# B4: Antibody 11 scFv (scFv, V domains shown)
# VH: B1 VH with L100M, H101G, R102K, R103W, L104I
# VL: B1 VL with S96P, L97T, S98L, G99T, L101P
# notes: Purified scFv
# B5: Antibody 12 scFv (scFv, V domains shown)
# VH: B1 VH with L100M, H101G, R102K, R103W, L104I
# VL: B1 VL with L97I, S98D, G99H, L101P
# notes: Purified scFv
# B6: Antibody 7 scFv (scFv, V domains shown)
# VH: B1 VH with L100T, H101L, R102K, R103S, L104A
# VL: B1 VL with S96D, L97R, S98R, G99N, L101P
# notes: Purified scFv
# B7: Antibody 18 scFv (scFv, V domains shown)
# VH: B1 VH with H101L, R103S, L104A
# VL: B1 VL with S96H, S98Q, G99L, L101P
# notes: Purified scFv
# B8: Antibody 25 scFv (scFv, V domains shown, not shown: small tags and cut ends)
# VH: B1 VH with L100T, H101L, R102K, R103S, L104A
# VL: B1 VL with S96N, L97H, S98K, G99T, L101P
# notes: Purified scFv
# B9: Antibody 23 scFv (scFv, V domains shown, not shown: small tags and cut ends)
# VH: B1 VH with L100M, H101G, R102K, R103W, L104I
# VL: B1 VL with S96H, L97H, S98L, G99Y, L101S
# notes: Purified scFv
# B10: Antibody 24 scFv (scFv, V domains shown, not shown: small tags and cut ends)
# VH: B1 VH with L100T, H101L, R102K, R103T, L104A
# VL: B1 VL with S96R, L97N, S98G, G99Y, S100G, L101G
# notes: Purified scFv
# B11: Antibody 8 scFv (scFv, V domains shown)
# VH: B1 VH with H101G, R103W, L104I
# VL: B1 VL with S96P, L97T, S98H, G99T, L101P
# notes: Purified scFv
# B12: Antibody 9 scFv (scFv, V domains shown)
# VH: B1 VH with L100T, H101L, R103S, L104A
# VL: B1 VL with S96P, L97S, G99T, L101P
# notes: Purified scFv
# B13: Antibody 3 scFv (scFv, V domains shown)
# VH: B1 VH with L100M, H101G, R102K, R103W, L104I
# VL: B1 VL with S96T, L97F, S98N, G99H, S100A, L101P
# notes: Purified scFv
# B14: Antibody 13 scFv (scFv, V domains shown)
# VH: B1 VH with L100M, H101G, R102K, R103W, L104I
# VL: B1 VL with S96N, L97I, S98L, G99Y, L101P
# notes: Purified scFv
# B15: Antibody 28 scFv (scFv, V domains shown, not shown: small tags and cut ends)
# VH: B1 VH with L100M, H101G, R102K, R103W, L104I
# VL: B1 VL with L97S, S98L, G99H, L101P
# notes: Purified scFv
# B16: Antibody 14 scFv (scFv, V domains shown)
# VH: B1 VH with L100M, H101G, R102K, R103W, L104I
# VL: B1 VL with S96H, L97H, S98R, G99H, L101P
# notes: Purified scFv
# B17: Antibody 15 scFv (scFv, V domains shown)
# VH: B1 VH with L100T, H101L, R102K, R103T, L104A
# VL: B1 VL with S96H, L97K, S98G, G99Y, S100G, L101G
# notes: Purified scFv
# B18: Antibody 17 scFv (scFv, V domains shown)
# VH: B1 VH with L100T, H101L, R102K, R103S, L104A
# VL: B1 VL with S96Q, L97S, G99T, L101P
# notes: Purified scFv
# B19: Antibody 10 scFv (scFv, V domains shown)
# VH: B1 VH with L100S, H101L, R103A, L104A
# VL: B1 VL with S96E, L97Q, S98E, G99L, S100A, L101P
# notes: Purified scFv
# B20: Antibody 5 scFv (scFv, V domains shown)
# VH: B1 VH with L100M, H101G, R102K, R103W, L104I
# VL: B1 VL with S96T, L97K, S98H, G99T, L101P
# notes: Purified scFv
# B21: Antibody 21 scFv (scFv, V domains shown)
# VH: B1 VH with L100T, H101L, R102K, R103S, L104A
# VL: B1 VL with L97S, S98Q, G99L, L101P
# notes: Purified scFv
# B22: Antibody 4 scFv (scFv, V domains shown)
# VH: B1 VH with L100M, H101G, R102K, R103W, L104I
# VL: B1 VL with S96R, L97G, S98G, G99H, L101P
# notes: Purified scFv
# B23: Antibody 26 scFv (scFv, V domains shown, not shown: small tags and cut ends)
# VH: B1 VH with L100S, H101L, R102K, R103E, L104A
# VL: B1 VL with S96A, L97S, S98R, G99H, S100A, L101P
# notes: Purified scFv
# B24: Antibody 27 scFv (scFv, V domains shown, not shown: small tags and cut ends)
# VH: B1 VH with L100S, H101L, R102K, R103E, L104A
# VL: B1 VL with S96P, L97T, S98Q, G99T, L101P
# notes: Purified scFv
# B25: Antibody 22 scFv (scFv, V domains shown)
# VH: B1 VH with L100T, H101L, R102K, R103S, L104A
# VL: B1 VL with L97G, S98G, G99Y, S100A, L101P
# notes: Purified scFv
# B26: Antibody 6 scFv (scFv, V domains shown)
# VH: B1 VH with L100M, H101G, R102K, R103W, L104I
# VL: B1 VL with S96T, L97M, S98R, G99H, S100G, L101P
# notes: Purified scFv
# B27: Antibody 11 IgG (antibody, V domains shown)
# VH: B1 VH with L100M, H101G, R102K, R103W, L104I
# VL: B1 VL with S96P, L97T, S98L, G99T, L101P
# notes: Whole human IgG (section 1.4, IgG1)
# B28: Antibody 6 IgG (antibody, V domains shown)
# VH: B1 VH with L100M, H101G, R102K, R103W, L104I
# VL: B1 VL with S96T, L97M, S98R, G99H, S100G, L101P
# notes: as for B27
# B29: Antibody 12 IgG (antibody, V domains shown)
# VH: B1 VH with L100M, H101G, R102K, R103W, L104I
# VL: B1 VL with L97I, S98D, G99H, L101P
# notes: as for B27
# B30: Antibody 5 IgG (antibody, V domains shown)
# VH: B1 VH with L100M, H101G, R102K, R103W, L104I
# VL: B1 VL with S96T, L97K, S98H, G99T, L101P
# notes: as for B27
# B31: Antibody 19 IgG (antibody, V domains shown)
# VH: B1 VH with L100M, H101G, R102K, R103W, L104I
# VL: B1 VL with S96T, G99H, L101P
# notes: as for B27
# B32: Antibody 13 IgG (antibody, V domains shown)
# VH: B1 VH with L100M, H101G, R102K, R103W, L104I
# VL: B1 VL with S96N, L97I, S98L, G99Y, L101P
# notes: as for B27
# B33: Antibody 16 IgG (antibody, V domains shown)
# VH: B1 VH with L100S, H101L, R102K, R103S, L104A
# VL: B1 VL with S96R, L97H, S98H, G99H, S100A, L101P
# notes: as for B27
# B34: Antibody 28 IgG (antibody, V domains shown)
# VH: B1 VH with L100M, H101G, R102K, R103W, L104I
# VL: B1 VL with L97S, S98L, G99H, L101P
# notes: as for B27
# B35: Antibody 4 IgG (antibody, V domains shown)
# VH: B1 VH with L100M, H101G, R102K, R103W, L104I
# VL: B1 VL with S96R, L97G, S98G, G99H, L101P
# notes: as for B27
# B36: Antibody 8 IgG (antibody, V domains shown)
# VH: B1 VH with H101G, R103W, L104I
# VL: B1 VL with S96P, L97T, S98H, G99T, L101P
# notes: as for B27
# B37: Antibody 20 IgG (antibody, V domains shown)
# VH: B1 VH with L100M, H101G, R102K, R103W, L104I
# VL: B1 VL with L97T, G99S, L101P
# notes: as for B27
# B38: Antibody 23 IgG (antibody, V domains shown)
# VH: B1 VH with L100M, H101G, R102K, R103W, L104I
# VL: B1 VL with S96H, L97H, S98L, G99Y, L101S
# notes: as for B27
# B39: Antibody 18 IgG (antibody, V domains shown)
# VH: B1 VH with H101L, R103S, L104A
# VL: B1 VL with S96H, S98Q, G99L, L101P
# Biological target: T1, cynomolgus IgE Cε3-Cε4 domain, …
# Assay: DELFIA epitope competition; competitor vs biotinylated IgE on immobilised IgG
row,Binder,binding result
1,B1,binds

# Biological target: human IgE (preparation not stated, or 'Calbiochem or U266-derived') (human, UniProt P01854-1 1-428)
# Assay: cell-based or functional assay
# human IgE (preparation not stated, or 'Calbiochem or U266-derived'), sequence (P01854 other isoform, or with tags, fused parts or gaps): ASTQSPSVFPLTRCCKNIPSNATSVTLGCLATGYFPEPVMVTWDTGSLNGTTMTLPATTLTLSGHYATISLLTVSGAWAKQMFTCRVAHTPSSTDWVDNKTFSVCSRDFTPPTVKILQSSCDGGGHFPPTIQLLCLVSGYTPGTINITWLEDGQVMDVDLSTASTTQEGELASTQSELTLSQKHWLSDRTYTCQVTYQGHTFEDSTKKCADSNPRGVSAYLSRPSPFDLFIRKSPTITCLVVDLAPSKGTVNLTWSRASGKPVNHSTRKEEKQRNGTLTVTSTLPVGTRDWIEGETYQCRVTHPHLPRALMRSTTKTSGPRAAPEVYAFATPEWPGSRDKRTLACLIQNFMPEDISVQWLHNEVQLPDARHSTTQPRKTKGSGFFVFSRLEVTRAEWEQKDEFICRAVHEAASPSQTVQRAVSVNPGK
row,Binder,"IgE induced calcium signalling of RBL-ER51 cells, IC50"
1,B1,34 nM

# Biological target: T2, cynomolgus IgE (recombinant chimaeric D12 variable region and cynomolgus IgE constant region) (cynomolgus monkey (constant region); …)
# T2 construct: The entries may hold a leader peptide; also called cyno IgE; cynomolgus monkey IgE
# Assay: HTRF competition; scFv titrated vs Eu-cryptate cynomolgus IgE binding to human FcεRI-Fc; geomean
# T2 sequence (heavy, as listed by the source limits assumed, chain 1 of 2): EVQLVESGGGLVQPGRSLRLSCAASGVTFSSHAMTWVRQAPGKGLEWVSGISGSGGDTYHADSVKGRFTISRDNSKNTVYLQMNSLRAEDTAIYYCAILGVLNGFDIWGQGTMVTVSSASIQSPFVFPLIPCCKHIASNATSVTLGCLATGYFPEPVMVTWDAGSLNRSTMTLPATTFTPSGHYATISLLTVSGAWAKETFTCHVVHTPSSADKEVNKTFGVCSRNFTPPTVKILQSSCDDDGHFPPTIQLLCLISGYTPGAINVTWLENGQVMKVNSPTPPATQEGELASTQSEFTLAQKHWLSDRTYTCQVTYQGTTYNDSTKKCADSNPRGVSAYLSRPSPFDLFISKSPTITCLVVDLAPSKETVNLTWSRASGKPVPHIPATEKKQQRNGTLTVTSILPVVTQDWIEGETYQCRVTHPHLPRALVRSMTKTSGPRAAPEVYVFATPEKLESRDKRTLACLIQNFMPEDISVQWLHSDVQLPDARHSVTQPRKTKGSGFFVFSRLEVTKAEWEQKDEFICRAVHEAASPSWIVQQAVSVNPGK
# T2 sequence (light, as listed by the source limits assumed, chain 2 of 2): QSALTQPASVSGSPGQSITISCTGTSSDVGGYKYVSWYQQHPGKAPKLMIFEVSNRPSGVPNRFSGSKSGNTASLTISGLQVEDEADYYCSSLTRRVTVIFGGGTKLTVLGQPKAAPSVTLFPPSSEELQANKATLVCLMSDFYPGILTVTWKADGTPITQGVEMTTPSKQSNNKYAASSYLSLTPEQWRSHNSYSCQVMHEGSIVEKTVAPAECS
row,Binder,IC50
1,B2,317 nM
2,B3,63 nM
3,B4,7 nM
4,B5,7 nM
5,B6,186 nM
6,B7,110 nM
7,B8,86 nM
8,B9,6 nM
9,B10,111 nM
10,B11,12 nM
11,B12,132 nM
12,B13,18 nM
13,B14,7 nM
14,B15,7 nM
15,B16,15 nM
16,B17,172 nM
17,B18,109 nM
18,B19,116 nM
19,B20,6 nM
20,B21,65 nM
21,B22,5 nM
22,B23,121 nM
23,B24,117 nM
24,B25,68 nM
25,B26,11 nM

# Biological target: MOv18 IgE
# Assay: cell-based or functional assay
row,Binder,"IC50 (read off the curve), IgE/FcεRI-mediated cytotoxicity"
1,B27,~0.1 nM

# Biological target: T2, cynomolgus IgE (recombinant chimaeric …)
# Assay: SPR BIAcore; IgG captured on protein G', IgE analyte, bivalent analyte fit; geomean
row,Binder,Kd
1,B28,3.7 nM
2,B29,230 nM
3,B30,7.9 nM
4,B31,7.9 nM
5,B32,9.9 nM
6,B33,62 nM
7,B34,7.2 nM
8,B35,8 nM
9,B27,9.3 nM
10,B36,6.3 nM
11,B37,10.5 nM
12,B38,4.3 nM

# Biological target: T2, cynomolgus IgE (recombinant chimaeric …)
# Assay: cell-based or functional assay
row,Binder,"RBL-ER51 calcium signalling IC50 (nM), Cynomolgus IgE, geomean"
1,B39,2.97 nM
2,B28,0.168 nM
3,B29,0.334 nM
4,B30,0.181 nM
5,B31,0.111 nM
6,B32,0.244 nM
7,B33,4.38 nM
8,B34,0.253 nM
9,B35,0.151 nM
10,B27,0.153 nM
11,B36,0.188 nM
12,B37,0.31 nM
13,B38,0.523 nM
